# According to publication PMC13397619:
# B1: NLV3 TCR beta chain (CDR3β only) (parent)
# chain: ASSPTGGSPSPLH
# partner: NLCPMVATV
# Variants of: B1
# Assay: T-Switch: Jurkat TCRβ−/− cells expressing a CDR3 saturation-mutagenesis library, stained with two peptide-HLA-A*02:01 tetramers (original and novel peptide) plus anti-CD3, FACS-sorted into four gates, gDNA sequenced
# Conditions: with HLA-A*02:01 with peptide … (NLV 2-1, the novel peptide), tetramers 1 µg/mL, 30 min on ice, SP, DP and SW gates expanded about 10 days between rounds ('two to three rounds of selection' in the Methods), gate SW: higher = more of the variant in the gate that binds the novel peptide and not the original one = switched binding. Fold enrichment of the CDR3 variant in one FACS gate of a two-tetramer stain, unresolved parent, parent is a CDR3 fragment, scale: fold enrichment, numbering: sequential-on-construct, sequence starts at 1
row,Variant,enrichment
1,[…] (CDR3 as printed); S2V derived by comparing it with the table's wild-type CDR3 ASSPTGGSPSPLH,0
2,[…] (CDR3 as printed); T5E derived by comparing it with the table's wild-type CDR3 ASSPTGGSPSPLH,0
3,[…] (CDR3 as printed); S3R derived by comparing it with the table's wild-type CDR3 ASSPTGGSPSPLH,0
4,[…] (CDR3 as printed); H13K derived by comparing it with the table's wild-type CDR3 ASSPTGGSPSPLH,0
5,[…] (CDR3 as printed); P4M derived by comparing it with the table's wild-type CDR3 ASSPTGGSPSPLH,0
6,[…] (CDR3 as printed); H13P derived by comparing it with the table's wild-type CDR3 ASSPTGGSPSPLH,0
7,[…] (CDR3 as printed); P11Q derived by comparing it with the table's wild-type CDR3 ASSPTGGSPSPLH,0
8,[…] (CDR3 as printed); G6C derived by comparing it with the table's wild-type CDR3 ASSPTGGSPSPLH,0
9,[…] (CDR3 as printed); S10H derived by comparing it with the table's wild-type CDR3 ASSPTGGSPSPLH,0
10,[…] (CDR3 as printed); A1W derived by comparing it with the table's wild-type CDR3 ASSPTGGSPSPLH,0
11,[…] (CDR3 as printed); S10Q derived by comparing it with the table's wild-type CDR3 ASSPTGGSPSPLH,0
12,[…] (CDR3 as printed); S3N derived by comparing it with the table's wild-type CDR3 ASSPTGGSPSPLH,0
13,[…] (CDR3 as printed); S2Q derived by comparing it with the table's wild-type CDR3 ASSPTGGSPSPLH,0
14,[…] (CDR3 as printed); P11C derived by comparing it with the table's wild-type CDR3 ASSPTGGSPSPLH,0
15,[…] (CDR3 as printed); A1Y derived by comparing it with the table's wild-type CDR3 ASSPTGGSPSPLH,0
16,[…] (CDR3 as printed); S2T derived by comparing it with the table's wild-type CDR3 ASSPTGGSPSPLH,0
17,[…] (CDR3 as printed); P4C derived by comparing it with the table's wild-type CDR3 ASSPTGGSPSPLH,0
18,[…] (CDR3 as printed); L12Q derived by comparing it with the table's wild-type CDR3 ASSPTGGSPSPLH,0
19,[…] (CDR3 as printed); A1H derived by comparing it with the table's wild-type CDR3 ASSPTGGSPSPLH,0
20,[…] (CDR3 as printed); G7D derived by comparing it with the table's wild-type CDR3 ASSPTGGSPSPLH,0
21,[…] (CDR3 as printed); G7L derived by comparing it with the table's wild-type CDR3 ASSPTGGSPSPLH,0
22,[…] (CDR3 as printed); S8W derived by comparing it with the table's wild-type CDR3 ASSPTGGSPSPLH,0

row,Variant,enrichment
1,[…] (CDR3 as printed); P4A derived by comparing it with the table's wild-type CDR3 ASSPTGGSPSPLH,0
2,[…] (CDR3 as printed); T5V derived by comparing it with the table's wild-type CDR3 ASSPTGGSPSPLH,0
3,[…] (CDR3 as printed); S10D derived by comparing it with the table's wild-type CDR3 ASSPTGGSPSPLH,0
4,[…] (CDR3 as printed); A1P derived by comparing it with the table's wild-type CDR3 ASSPTGGSPSPLH,0
5,[…] (CDR3 as printed); A1K derived by comparing it with the table's wild-type CDR3 ASSPTGGSPSPLH,0
6,[…] (CDR3 as printed); T5H derived by comparing it with the table's wild-type CDR3 ASSPTGGSPSPLH,0
7,[…] (CDR3 as printed); P4N derived by comparing it with the table's wild-type CDR3 ASSPTGGSPSPLH,0
8,[…] (CDR3 as printed); S8C derived by comparing it with the table's wild-type CDR3 ASSPTGGSPSPLH,0
9,[…] (CDR3 as printed); G7Y derived by comparing it with the table's wild-type CDR3 ASSPTGGSPSPLH,0
10,[…] (CDR3 as printed); G6H derived by comparing it with the table's wild-type CDR3 ASSPTGGSPSPLH,0
11,[…] (CDR3 as printed); S2M derived by comparing it with the table's wild-type CDR3 ASSPTGGSPSPLH,0
12,[…] (CDR3 as printed); L12P derived by comparing it with the table's wild-type CDR3 ASSPTGGSPSPLH,0
13,[…] (CDR3 as printed); A1T derived by comparing it with the table's wild-type CDR3 ASSPTGGSPSPLH,0
14,[…] (CDR3 as printed); G7R derived by comparing it with the table's wild-type CDR3 ASSPTGGSPSPLH,0
15,[…] (CDR3 as printed); P4G derived by comparing it with the table's wild-type CDR3 ASSPTGGSPSPLH,0
16,[…] (CDR3 as printed); A1V derived by comparing it with the table's wild-type CDR3 ASSPTGGSPSPLH,0
17,[…] (CDR3 as printed); S8L derived by comparing it with the table's wild-type CDR3 ASSPTGGSPSPLH,0
18,[…] (CDR3 as printed); A1E derived by comparing it with the table's wild-type CDR3 ASSPTGGSPSPLH,0
19,[…] (CDR3 as printed); S8K derived by comparing it with the table's wild-type CDR3 ASSPTGGSPSPLH,0
20,[…] (CDR3 as printed); P9I derived by comparing it with the table's wild-type CDR3 ASSPTGGSPSPLH,0
21,[…] (CDR3 as printed); S10F derived by comparing it with the table's wild-type CDR3 ASSPTGGSPSPLH,0
